Experimental data as given in paper PMC517823 (2004).
Where two headings read alike, the source gives them in different places.

Assays:
Ffh [1] = molecular target: T1, Ffh (UniProt P0AGD7 1-453); experiment: GTP; inhibition assay
T1 chain: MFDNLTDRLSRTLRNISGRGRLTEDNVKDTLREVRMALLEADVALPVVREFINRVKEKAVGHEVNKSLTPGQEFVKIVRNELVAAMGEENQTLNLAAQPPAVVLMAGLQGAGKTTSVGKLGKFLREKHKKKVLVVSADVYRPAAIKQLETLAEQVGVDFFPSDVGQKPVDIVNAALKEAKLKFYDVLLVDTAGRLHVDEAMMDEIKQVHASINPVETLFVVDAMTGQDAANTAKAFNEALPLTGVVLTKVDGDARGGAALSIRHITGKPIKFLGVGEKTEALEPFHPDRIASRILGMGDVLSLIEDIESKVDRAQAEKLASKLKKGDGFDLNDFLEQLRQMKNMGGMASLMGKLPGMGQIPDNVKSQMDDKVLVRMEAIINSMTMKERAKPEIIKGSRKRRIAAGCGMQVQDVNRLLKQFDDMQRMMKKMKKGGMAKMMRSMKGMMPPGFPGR

Ffh [2] = molecular target: T1, Ffh; experiment: GTP; inhibition assay

Row | Binder | Ki (Ffh [1]) | Ki (Ffh [2])
1 | FtsY T307(112)A (domain or fragment) ASEQAVEEQPQAHTEAEAETFAADVVEVTEQVAESEKAQPEAEVVAQPEPVVEETPEPVAIEREELPLPEDVNAEAVSPEEWQAEAETVEIVEAAEEEAAKEEITDEELETALAAEAAEEAVMVVPPAEEEQPVEEIAQEQEKPTKEGFFARLKRSLLKTKENLGSGFISLFRGKKIDDDLFEELEEQLLIADVGVETTRKIITNLTEGASRKQLRDAEALYGLLKEEMGEILAKVDEPLNVEGKAPFVILMVGVNGVGKATTIGKLARQFEQQGKSVMLAAGDTFRAAAVEQLQVWGQRNNIPVIAQHTGADSASVIFDAIQAAKARNIDVLIADTAGRLQNKSHLMEELKKIVRVMKKLDVEAPHEVMLTIDASTGQNAVSQAKLFHEAVGLTGITLTKLDGTAKGGVIFSVADQFGIPIRYIGVGERIEDLRPFKADDFIEALFARED | 5.5 µM | 7.1 µM
2 | FtsY R333(138)A (domain or fragment) ASEQAVEEQPQAHTEAEAETFAADVVEVTEQVAESEKAQPEAEVVAQPEPVVEETPEPVAIEREELPLPEDVNAEAVSPEEWQAEAETVEIVEAAEEEAAKEEITDEELETALAAEAAEEAVMVVPPAEEEQPVEEIAQEQEKPTKEGFFARLKRSLLKTKENLGSGFISLFRGKKIDDDLFEELEEQLLIADVGVETTRKIITNLTEGASRKQLRDAEALYGLLKEEMGEILAKVDEPLNVEGKAPFVILMVGVNGVGKTTTIGKLARQFEQQGKSVMLAAGDTFAAAAVEQLQVWGQRNNIPVIAQHTGADSASVIFDAIQAAKARNIDVLIADTAGRLQNKSHLMEELKKIVRVMKKLDVEAPHEVMLTIDASTGQNAVSQAKLFHEAVGLTGITLTKLDGTAKGGVIFSVADQFGIPIRYIGVGERIEDLRPFKADDFIEALFARED | – | 0.24 µM
3 | FtsY G454(253)W (protein) ASEQAVEEQPQAHTEAEAETFAADVVEVTEQVAESEKAQPEAEVVAQPEPVVEETPEPVAIEREELPLPEDVNAEAVSPEEWQAEAETVEIVEAAEEEAAKEEITDEELETALAAEAAEEAVMVVPPAEEEQPVEEIAQEQEKPTKEGFFARLKRSLLKTKENLGSGFISLFRGKKIDDDLFEELEEQLLIADVGVETTRKIITNLTEGASRKQLRDAEALYGLLKEEMGEILAKVDEPLNVEGKAPFVILMVGVNGVGKTTTIGKLARQFEQQGKSVMLAAGDTFRAAAVEQLQVWGQRNNIPVIAQHTGADSASVIFDAIQAAKARNIDVLIADTAGRLQNKSHLMEELKKIVRVMKKLDVEAPHEVMLTIDASTGQNAVSQAKLFHEAVGLTGITLTKLDGTAKWGVIFSVADQFGIPIRYIGVGERIEDLRPFKADDFIEALFARED | – | 4.2 µM
